According to paper PMC10448441:

Target: T1, Integrin beta3 (CD61, GP3A), overexpressed on A549-ITGB3-OE cells (Homo sapiens) (UniProt P05106)
T1 sequence: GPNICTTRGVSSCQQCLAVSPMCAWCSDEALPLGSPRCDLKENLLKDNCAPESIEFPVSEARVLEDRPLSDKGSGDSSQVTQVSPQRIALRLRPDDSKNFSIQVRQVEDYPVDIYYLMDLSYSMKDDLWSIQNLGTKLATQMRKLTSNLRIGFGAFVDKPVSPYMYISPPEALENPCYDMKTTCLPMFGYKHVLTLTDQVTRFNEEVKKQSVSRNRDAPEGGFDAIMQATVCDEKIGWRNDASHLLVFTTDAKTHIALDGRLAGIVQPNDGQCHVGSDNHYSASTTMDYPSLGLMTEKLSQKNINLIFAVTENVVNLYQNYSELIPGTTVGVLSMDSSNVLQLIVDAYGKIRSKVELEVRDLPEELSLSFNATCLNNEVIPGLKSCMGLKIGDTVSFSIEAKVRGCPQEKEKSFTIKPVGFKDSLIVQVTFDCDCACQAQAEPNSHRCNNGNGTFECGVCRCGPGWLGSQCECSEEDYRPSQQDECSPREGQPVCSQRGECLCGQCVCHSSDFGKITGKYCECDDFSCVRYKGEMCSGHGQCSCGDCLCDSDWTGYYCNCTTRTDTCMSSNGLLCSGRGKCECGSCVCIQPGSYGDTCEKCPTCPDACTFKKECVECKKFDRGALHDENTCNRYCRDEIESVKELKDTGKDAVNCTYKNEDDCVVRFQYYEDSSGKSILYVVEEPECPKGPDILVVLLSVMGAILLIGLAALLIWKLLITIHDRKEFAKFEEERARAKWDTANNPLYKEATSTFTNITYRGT
Test: flow cytometry
Conditions: live A549-ITGB3-OE cells, FAM label; PBS with 5 mM MgCl2, 4.5 g/L glucose, 100 ug/mL tRNA; 4 C, 30 min; pH not stated; pull-down on ice 30 min

| Sequence | Kd [nM] |
| --- | --- |
| TCCACGATGTAGGATCCACATGAGCGCTCCTGTTACCCTG [S10yh2] | 61.2 |
| TTCAGCACTCCACGCATAGCTCCACGATGTAGGATCCACATGAGCGCTCCTGTTACCCTGCCTATGCGTGCTACCGTGAA [S10] | 71.4 |
